Key:
[1] = target: DotB from the dot/icm system encoded by the L. pneumophila genome (DotBL), wild type (L. pneumophila) (UniProt Q5ZS43); experiment: SEC-MALS
DotBL = target: T1, DotBL (Legionella pneumophila, UniProt O52185)
T1 construct: gene dotB

Molecule	stoichiometry N [1]	malachite green phosphate release, inhibition after 10 min preincubation (DotBL)
DotB from the dot/icm system encoded by the L. pneumophila genome (DotBL), wild type (from UniProt Q5ZS43 1-387) (enzyme)	6	
Nc1ncnc2c1ncn2[C@@H]1O[C@H](COP(=O)(O)OP(=O)(O)NP(=O)(O)O)[C@@H](O)[C@H]1O [AMP–PNP]		the analogue binds and competes with ATP resulting in an inhibition of phosphate release
